B1: GTP-binding protein Di-Ras1 (Mus musculus), Q91Z61 (parent)
chain: MPEQSNDYRVVVFGAGGVGKSSLVLRFVKGTFRDTYIPTIEDTYRQVISCDKSVCTLQITDTTGSHQFPAMQRLSISKGHAFILVFSVTSKQSLDELSPIYKLIVQIKGSVEDIPIMLVGNKCDETQREVHTREAQAVAQEWKCAFMETSAKMNYNVKELFQELLTLETRRSVSLSVDGKRSSKQKRADRIKGKCALM
B2: Phosphatidylinositol 4,5-bisphosphate 3-kinase catalytic subunit beta isoform (Mus musculus), Q8BTI9 (parent)
chain: MPPAMADNLDIWAVDSQIASDGAISVDFLLPTGIYIQLEVPREATISYIKQMLWKQVHNYPMFNLLMDIDSYMFACVNQTAVYEELEDETRRLCDVRPFLPVLKLVTRSCDPAEKLDSKIGVLIGKGLHEFDALKDPEVNEFRRKMRKFSEAKIQSLVGLSWIDWLKHTYPPEHEPSVLENLEDKLYGGKLVVAVHFENSQDVFSFQVSPNLNPIKINELAIQKRLTIRGKEDEASPCDYVLQVSGRVEYVFGDHPLIQFQYIRNCVMNRTLPHFILVECCKIKKMYEQEMIAIEAAINRNSSNLPLPLPPKKTRVISHIWDNNNPFQITLVKGNKLNTEETVKVHVRAGLFHGTELLCKTVVSSEISGKNDHIWNEQLEFDINICDLPRMARLCFAVYAVLDKVKTKKSTKTINPSKYQTIRKAGKVHYPVAWVNTMVFDFKGQLRSGDVILHSWSSFPDELEEMLNPMGTVQTNPYAENATALHITFPENKKQPCYYPPFDKIIEKAAELASGDSANVSSRGGKKFLAVLKEILDRDPLSQLCENEMDLIWTLRQDCRENFPQSLPKLLLSIKWNKLEDVAQLQALLQIWPKLPPREALELLDFNYPDQYVREYAVGCLRQMSDEELSQYLLQLVQVLKYEPFLDCALSRFLLERALDNRRIGQFLFWHLRSEVHTPAVSVQFGVILEAYCRGSVGHMKVLSKQVEALNKLKTLNSLIKLNAVKLSRAKGKEAMHTCLKQSAYREALSDLQSPLNPCVILSELYVEKCKYMDSKMKPLWLVYSSRAFGEDSVGVIFKNGDDLRQDMLTLQMLRLMDLLWKEAGLDLRMLPYGCLATGDRSGLIEVVSTSETIADIQLNSSNVAATAAFNKDALLNWLKEYNSGDDLDRAIEEFTLSCAGYCVASYVLGIGDRHSDNIMVKKTGQLFHIDFGHILGNFKSKFGIKRERVPFILTYDFIHVIQQGKTGNTEKFGRFRQCCEDAYLILRRHGNLFITLFALMLTAGLPELTSVKDIQYLKDSLALGKSEEEALKQFKQKFDEALRESWTTKVNWMAHTVRKDYRS

The record followed here is IntAct's records for PubMed 23706742.

Variants of B1 are the subject of one assay. Particulars: with pk3cb_mouse Pik3cb.
As for MPEQSNDYRVVVFGAGGVGKSSLVLRFVKGTFRDTYDPTIEDTYRQVISCDKSVCTLQITDTTGSHQFPAMQRLSISKGHAFILVFSVTSKQSLDELSPIYKLIVQIKGSVEDIPIMLVGNKCDETQREVHTREAQAVAQEWKCAFMETSAKMNYNVKELFQELLTLETRRSVSLSVDGKRSSKQKRADRIKGKCALM, the “effect of a mutation on the interaction” value is given as “decreasing interaction strength”.

A further assay covers variants of B2. The note with it: with rac1_mouse Rac1, P63001.
Turning to Q207D, the “effect of a mutation on the interaction” value is “decreasing interaction strength”.
Consider R229A, for which the “effect of a mutation on the interaction” value is reported as “disrupting interaction strength”.
As for V203S, the “effect of a mutation on the interaction” value is “disrupting interaction strength”.
Take V203K: the “effect of a mutation on the interaction” value is “disrupting interaction strength”.
Still for that read-out and setting: to Q223D belongs “decreasing interaction strength”; to K185A, “decreasing interaction strength”; to V192K, “disrupting interaction strength”.
Still for that read-out and setting: in the case of V192S it was “disrupting interaction strength”; in that of E219A, “decreasing interaction strength”.
For T227D, the “effect of a mutation on the interaction” value is “decreasing interaction strength”.
Take Y187A: the “effect of a mutation on the interaction” value was “disrupting interaction strength”.
As to K231A, the “effect of a mutation on the interaction” value is given as “decreasing interaction strength”.
For the variant S205D;K224A, the “effect of a mutation on the interaction” value is “decreasing interaction strength”.
Consider A194K, for which the “effect of a mutation on the interaction” value is “disrupting interaction strength”.
A194S: the “effect of a mutation on the interaction” value is given as “decreasing interaction strength”.
For E183A, the “effect of a mutation on the interaction” value is recorded as “decreasing interaction strength”.
Turning to L186A, the “effect of a mutation on the interaction” value is “disrupting interaction strength”.
The same measure, in the same setting: to K190A belongs “decreasing interaction strength”; to D202A, “disrupting interaction strength”.

The variants in a further assay derive from B2. Particulars: with cdc42_mouse Cdc42, P60766.
Sequence of cdc42_mouse Cdc42, P60766 (P60766 whole entry, looked up): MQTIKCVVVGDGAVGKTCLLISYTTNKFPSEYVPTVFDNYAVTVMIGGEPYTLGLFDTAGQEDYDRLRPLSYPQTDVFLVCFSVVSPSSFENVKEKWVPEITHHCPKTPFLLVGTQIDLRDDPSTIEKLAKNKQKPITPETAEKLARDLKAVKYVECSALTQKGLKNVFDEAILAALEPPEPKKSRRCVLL
Turning to Q207D, the “effect of a mutation on the interaction” value is “decreasing interaction strength”.
Same read-out and setting: to R229A belongs “disrupting interaction strength”; to V203S, “disrupting interaction strength”; to V203K, “disrupting interaction strength”.
Same read-out and setting: to Q223D belongs “decreasing interaction strength”; to K185A, “decreasing interaction strength”.
Turning to V192K, the “effect of a mutation on the interaction” value is “disrupting interaction strength”.
For V192S, the “effect of a mutation on the interaction” value is on record as “disrupting interaction strength”.
For E219A, the “effect of a mutation on the interaction” value is “decreasing interaction strength”.
Turning to T227D, the “effect of a mutation on the interaction” value is “disrupting interaction strength”.
As for Y187A, the “effect of a mutation on the interaction” value is “disrupting interaction strength”.
Consider K231A, for which the “effect of a mutation on the interaction” value is on record as “disrupting interaction strength”.
Regarding S205D;K224A, the “effect of a mutation on the interaction” value is “decreasing interaction strength”.
Consider A194K, for which the “effect of a mutation on the interaction” value is given as “disrupting interaction strength”.
Still for that read-out and setting: to A194S belongs “decreasing interaction strength”; to E183A, “decreasing interaction strength”; to L186A, “disrupting interaction strength”.
On the same count and under the same terms, in the case of K190A it was “decreasing interaction strength”; in that of D202A, “disrupting interaction strength”.

Another assay covers variants of B2. The note with it: with rac1_mouse Rac1, P63001. This is another data set of the same source.
S205D;V244A: the “effect of a mutation on the interaction” value is listed as “disrupting interaction strength”.

The variants in the next assay derive from B2. The note with it: with cdc42_mouse Cdc42, P60766. The source holds these as a separate data set.
Take S205D;K224A: the “effect of a mutation on the interaction” value was “disrupting interaction strength”.

Variants of B2 are the subject of a further assay. The note with it: with rash_mouse Hras.
On to S205D;K224A, for which the “effect of a mutation on the interaction” value is “disrupting interaction strength”.

A further assay covers variants of B2. Particulars: with rac1_mouse Rac1, P63001. The source holds these as a separate data set.
As for S205D;K224A, the “effect of a mutation on the interaction” value was “disrupting interaction”.

Another assay covers variants of B2. The note with it: with cdc42_mouse Cdc42, P60766. The source holds these as a separate data set.
For S205D;K224A, the “effect of a mutation on the interaction” value is “disrupting interaction”.
